Measured values as given in the nanobody polyreactivity screen of Harvey et al. (2022).

Test: yeast display, Sf9 membrane polyspecificity reagent, FACS + sequencing; frameworks hold sequencing errors
Summary of the method: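 Galactose-induced (36–48 hours) yeast carrying a synthetic nanobody display library were exposed to 10% biotinylated, detergent-solubilized Sf9 membrane reagent at 4 °C for 1 hour. FACS followed streptavidin microbead enrichment, using low and high (top ~1%) gates for expression (anti-HA) and reagent binding (streptavidin). Colony PCR, MiSeq 2 × 250 sequencing and CDR-length filtering followed. Labels for polyreactivity reflect the gate of origin.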

| Sequence | polyreactivity (PSR sort gate) |
| --- | --- |
| QVQHVESGGGLVQAGGSLRLSCAASGRTFYKNTMGWYRQAPGKERELVAGISQRGGRTYYADSVKGRFTISRDNAKNTVYLQMNSLEPEDTAVYYCNKRRAAGGFPFDYWGQGTQVTVSS | high polyreactivity |
| QVQLVESGGGLVQAGGSLRLSCAASGFTFVYYVMGWYRQAPGKERELVAAINAGGGSTYYADSVKGRFTISRDNAKNTVYLQMNSLKPEDTAVYYCNARVRVRLGRNWSSYDYWGQGSQVTVSS | high polyreactivity |
| QVQLVESGGGLVQAGGSLRLSCAGSGHIFRQYAMGWYRQAPGKERELVAAITSGGSTYYADSVKGRFTISRDNAKNTVYLQMNSLKPEDTAVYYCATRPGGDRPIGYDYWGQGTQVTVSS | low polyreactivity |
| QVQLVESGGGLVQAGGSLRLSCAASGRTFWYYAMGGYRQAPGKERELVAYADSVKGRFTISRDNAKNTVYLQMNSLKPEDTAVYYCAVGPVVWFSSSLYYTDYYYWGQGTQVTVSS | low polyreactivity |
| QVQRVESGGGLVQAGGSLRLSFAASGSTDGRYARGWYSQAPVQDTELVAAITRNGGRTYYADSVKGCFTISRDNAKNTVYLQMNSLKPEHTADEYCAASGRSQYGDYDDWGQGSQVTVSS | high polyreactivity |
| QVQLVESGGGLVQAGGSLRLSCAASGRIFTFYARGLDRQAPGKEREMVAAISSGGSTYYADSVKGRFTISRDNAKNTVYLQMNSLKPEDTAVYYCATQGARYYHTYGYWGQGTLVTVSS | low polyreactivity |
| QVQLVESGGGLVQAGGSLRLSCAASGGIFSAYDMAWYRQAPGKERELVAAINSGGSTNYADSVKGRFTISRDNAKNTVYLQMNSLKPEDTAVYYCAAAKVSWFGLKYYYWGQGTQVTVSS | high polyreactivity |
| QVQLVESGGGLVQAGGSLRLSCAASGSIFSRYAMGWYRQAPGKEMELVAAISSRGGSTSYADSVKGRFTISRDYAKNTVYLQMNSLQPEDTAVYYCGRVYYAGPRLYRDFGFDYWGQGTQVTVSS | high polyreactivity |
| QVQHVESGGGLDQAGGSLRLSCAASGRIYCTNAMGWYRQAPGKESELVADITSGGSTNYADSVKGRFSISRDNAKNTVYLQMTSLKPEDTAVYYCAADVIGDLRWYRDEYWGQGTQVTVAS | low polyreactivity |
| QVQLVESGGGLVQAGGSLRLSCAASGSTLPRYTMGWYRQAPGKERELVAAISFSGSSTYYADSVKGRFTISRVNAKNTVYLQMNSLKPEDTAVYYCRYGYNYWGQGTQVTVSS | high polyreactivity |
| QVQLVESGGGLVQAGGSLRLSCAASGGTFSVYVMGWYRQAPGKERELVAAIRDRGVSTYYADSVKGRFTISRDNAKNTVYLQMNSEKPEDTAVSYCAAKYSYSRKPGAYYYWGQGTQVTVSS | high polyreactivity |
| QVQLVESGGGLVQAGGSLRLSCAASGSIFRYYVMGWYRQAPGKERELVAAISGGSTYYADSVKGRFTISRDNAKNTVYLQMNSLKPEDTAVYYCAAEQWSTGYYYWGQGTQVTVSS | high polyreactivity |
| QVQRVESGGGLVQAGGSLRLSCAASGSTFYRYAMVWYRQAPGKERELVATISGGGRTNYADSVKGRFTISRDNAKNTVYLQMNSLKPEDTAVYYCAVDSSSPYDYWGQGTQVTVSS | high polyreactivity |
| QVQLVESGGGLVQAGGSLRLSCAASGFTFVYYVMGWYRQAPGKERELVAAINAGGGSTYYADSVKGRFTISRDNAKNTVYLQMISLKPEDTSVYYCNARVRVRLGRNWSSYYYWGQGTQVTVSS | high polyreactivity |
| QVQLVESGGGLVQAGGSLRLSCAASGRTFVYNAMGWYRQAPGKERELVAAISSDGASTYYADSVKGRFTISRDNAKNTVYLQMNSLKPEDTAVYYCAADFSYYSYEHYYWVQGTQVTVSS | low polyreactivity |
| QVQLVESGGGLVQAGGSLRLSCAASGRTFRLYAMGWYRQAPGKERELVASISRSVGSTYYADSVKGRFTISRDNAKNTVYLQMNSLKPEDTAVYYCAARSYIPGGWDGAYYYWGQGTQVTVSS | high polyreactivity |
| QVQLVESGGGLVQAGGSLRLSCAASGGIFLFNAMGWYRQAPGKERELVAAITDGGSTYYADSVKGRFTISRDNAKNTVYLQMNSLKPEDTAVYYCNAEGVSLYGYDSGVDSGEDYWGQGTQVTVSS | low polyreactivity |
| QVQLVESGGGLVQAGGSLRLSCAASGLIFPTNAMGWYRPAPGKERELVAAISSVGSTYYADSVKGRFTISRDNAKNTVYLQMNSLKPEDTAVYYCAAYWYGSQYKWRYDYWGQGTQVTVSS | low polyreactivity |
| QVQLVESGGGLVQAGASLRLSCAASGNILVGNDMGWYRQAPWKERELVAAISSGDTTSYADSVKGRFTISRDNAKNTVYLQMNSLKPEDTAVYYCAVDRSLSPFAYDYWGQGTQVTVSS | low polyreactivity |
| QVQLVESGGGLVQAGGSLRLSCAASGFIFRAYTMGWYRQAPGKERELVAGITSGGSTYYADSVKGRFTISRDNAKNTVYLQMNSLKPDDTAVYYCATYYRRWTPIPYEYWGQGTQVTVSS | high polyreactivity |
| QVQLVESGGGLVQAGGSLRLSCAASGFIFGDYAMGWYRQAPGKERELVAAISRSGGRTYYADSVKGRFTISRDNAKNTVYLQMNSLKPEDTAVYYCAKSSLNIYDYWGQGTQVTVSS | high polyreactivity |
| QVQLVESGGGLVQAGGSLRLICAASGRTYHGYAMGWYRQAPGKERELVAAITSSGARTYYADSVKGRFTLSRDNAKKTVYLQMNSLKPEDTAVYYCAVNWLRGMDWGQGTQVTVSS | high polyreactivity |

| Sequence | polyreactivity (PSR sort gate) |
| --- | --- |
| QVQLVESAGGLVQAGGTLRLSCAASGRIIYRYGMGWYRQAPGKERELVASITRGGSTYYADSVKGRFTISRDNAKNTVYLQMNSLKPEDTAVYYCATKSSAGYDYWGQGTQVTVSS | low polyreactivity |
| QVQLVESGGGLVQAGGSLRLSCAASGSIFDWNALGWYRQAPGKERELVASITGSGGGTNYADSLKGRFTISRDNAKNTVYFQMNSLNPEDTAVYFCNADGLNLDGHEYWGQATQVTVSS | low polyreactivity |
| PVQLVESGGGLVQAGGSLRLSCAASGRTFPFYGMGWYRQAPGKERELVAAISISGGSTYYADSVKGRFTISRDNAKNTVYVQMNSLKPEDTAVYYCAAVGPRSYGFGNGYWGQGTQVTVSS | high polyreactivity |
| QVQHVESGGGLVQAGGSLRLSCAASGRTFGRNAMGWYRQAPGKESEFVASINQRGGCTYYADSVKGRFTISRDIAKNTVYLQMNSLKPEDTAVYYCAKYVYVGYVRQVPYFRYDYWGQGTQVTVSS | high polyreactivity |
| QVQLVETGGGLVQAGGSLRLSCAASGIFVSYAMGWYRQAPGKERELVAAIRYSGDSTYYADSVKGRFTISRDNAKNTVYLQMNSLKPEDTAVYYCAATKGWSRYEYWGQGTQVTVSS | low polyreactivity |
| QVQLVESGGGLVQAGGSLRLSCAASGSNFLPNAMGWYRQAPGKERELVAAISWSDDSTYYADSVKGRFTISRDNAKNTVDLQMNSLNPEDTAVYYCAADVGLWYDYWGQGTQVTVSS | high polyreactivity |
| QVQLVESVGGLFQAGGSLRLSCAASGSTFDYYSMVWYRQAPGKERELVAGIDSAGSTNYADSVKGRFTISRDNAKNTVYLQMNSLKTGRYRGLYCNVGKTITTYAFPTFDYWGQGTQVTVSS | low polyreactivity |
| QVQLVESGGGLVQAGGSLRLSSAASGSIFYYYAMGWYRQAPGKARELVATINISDGSTYYAVSVKGRFTISRDNAKNTVYLQMNSLKPEDTAVYYCAAYYYFQDYDYWGQGTQVTVSS | low polyreactivity |
| QVQLVESGGGLVQAGGSLRLSCAASARTFVWNAMGWYRQAPGKERELVAAIDWSGGSTYYADSVKGRFTISRDNAKNTVYFQMYSLKPEDTAVYYCAVAVWNGSEYWGQGSQVTVSS | high polyreactivity |
| QVQLVETGGGLVQAGGSLRLSCAASGFILDYNAKGWYRQAPGKERELVAAITSGGSTNYSDSVKGRFTISRDNAKNTVYLQMNSLKPEDTAVYYCNVRSVSPVHDDGSWGQGTQVTVSS | low polyreactivity |
| QVQLVESGGGLVQAGGSLRLSCAASGSIFAVYAMGWYRQAPGKEREFVARISWGGGRTYYADSVKGRCTISRDNAKNPVYLQMNSLKPEDTAVYYCAATFRARPRENYWGQGTQVTVSS | high polyreactivity |
| QVQLVESGGGLVQPGGSLRLSCAASGRIFGYYVMGWYRQAPRKERELVAAITGGGGSTYYADSVKGRFTISRDNEKNTVFLQMNSLKPEDTAVYYCAADLEYTNYDYDYWGQGTQVTVSS | high polyreactivity |
| QVQLVESGGGLVQAGGSLRLSCAASGSICGPYALGWYRQAPGKERELVAAITWTGGRTYYADSVKGRFTISRDNAKNTVYFQMNSLKPEDTAVYYCAADYSPSTWYLYYTLYYYWGQGTQVTVSS | low polyreactivity |
| QVQLVESGGGLVQAGGSLRLSCAASGFIFPAYVMGWYRQAPGKERELVAAISRRGGSTYYADSVKGRFTISRDNAKNTVYLQMNRLKPEDTSVYYCAAVFKAGSAYDYWGQGTQVTVSS | high polyreactivity |
| QVQLVESGGGLVQAGGSLRLSCAASGFIFKSYAMGWYRQAPGKERELVAAITRGDNTNYADSVKGRFTISRDNAKNTFYLQMNSLKPEDTAVYYCAADRYTVRMDYWGQGTQVTVSS | high polyreactivity |
| QVQLVESGGGLVQAGGSLRLICAASGFTFSTNAMGWYRQAPGKERELVAAITKSGGRTYYADSVKGRFTISRDNAKNTVYLQMNSLTPEDTAVYYCAAEVDRKGFYWYYWGQGTQVTVSS | high polyreactivity |
| QVQLVESGGGLDQAGGSLRLSCAASGRTFRYYAMGWDRQAPGKERELVAAITGSGGSTYYADSVKGRFTISRDIAKNTVYLQMNSLKPEDTAVYYCATRWALRWRGGYWGQGTQVTVSS | high polyreactivity |
| QVQLGESGGGLVQAGGSLRLSCAASGRTFGLKAMGWYRQAPGKERELVAAINWRGTSTYYADSVKGRFTISRDNAKNTVYLQMNSLKPEDTAVYYCAARRSVGGYGYWGQGTQVTVSS | high polyreactivity |
| QVQLVESGGGLVQAGGSLRLSCAASGIIFGWYAMGWYRQAPGKERELVAAITWSGASTYYADSVKGRFTISRDNAKNTVYLQMNSLKPEDTAVYYCAAESVDNIYYGFDYWGQGTQVTVSS | high polyreactivity |
| QVQLVESGGGLVQAGGSLRLRCAATGRTFGWYAMGWYRQAPGKEREFVATITRSGGRTYYADSVKGRFTISRDNAKNTVYFQMNSLKPEDTAVYYCAADTNRYRYSYDYWGQGTQVTVSS | high polyreactivity |
| QVQLVESRGGLVQARGSLRLSCAASGSTLFRYTKGWYRQAPGKERELVAAITRSGGNTFYADSVKGRFTISRDNSKNTVYLQMNSLKPEDTAVYYCAARARYVNCQGFDYWGQVTQVTVSS | high polyreactivity |
